T1: TQKPLGLS (SEQ ID NO: 4)
T1 chain: TQKPLGLS

T2: RPLALWRS (SEQ ID NO: 3)
T2 chain: RPLALWRS

T3: PVSLRSGS (SEQ ID NO: 1)
T3 chain: PVSLRSGS

T4: APAGLIVPYN (SEQ ID NO: 5)
T4 chain: APAGLIVPYN

T5: RSKYLATA (SEQ ID NO: 8)
T5 chain: RSKYLATA

T6: IVGRPRHQGV (SEQ ID NO: 7)
T6 chain: IVGRPRHQGV

T7: PANLVAPDP (SEQ ID NO: 6)
T7 chain: PANLVAPDP


Legend:
TQKPLGLS (SEQ ID NO: 4) = target: T1, TQKPLGLS (SEQ ID NO: 4)
RPLALWRS (SEQ ID NO: 3) = target: T2, RPLALWRS (SEQ ID NO: 3)
PVSLRSGS (SEQ ID NO: 1) = target: T3, PVSLRSGS (SEQ ID NO: 1)
[1] = target: T4, APAGLIVPYN (SEQ ID NO: 5)
RSKYLATA (SEQ ID NO: 8) = target: T5, RSKYLATA (SEQ ID NO: 8)
[2] = target: T6, IVGRPRHQGV (SEQ ID NO: 7)
PANLVAPDP (SEQ ID NO: 6) = target: T7, PANLVAPDP (SEQ ID NO: 6)

| Protein | initial rate of cleavage by recombinant protease (TQKPLGLS (SEQ ID NO: 4)) [µM/h] | initial rate of cleavage by recombinant protease (RPLALWRS (SEQ ID NO: 3)) [µM/h] | initial rate of cleavage by recombinant protease (PVSLRSGS (SEQ ID NO: 1)) [µM/h] | initial rate of cleavage by recombinant protease [1] [µM/h] | initial rate of cleavage by recombinant protease (RSKYLATA (SEQ ID NO: 8)) [µM/h] | initial rate of cleavage by recombinant protease [2] [µM/h] | initial rate of cleavage by recombinant protease (PANLVAPDP (SEQ ID NO: 6)) [µM/h] |
| --- | --- | --- | --- | --- | --- | --- | --- |
| MMP-1 (protein) FVLTEGNPRWEQTHLTYRIENYTPDLPRADVDHAIEKAFQLWSNVTPLTFTKVSEGQADIMISFVRGDHRDNSPFDGPGGNLAHAFQPGPGIGGDAHFDEDERWTNNFREYNLHRVAAHELGHSLGLSHSTDIGALMYPSYTFSGDVQLAQDDIDGIQAIYGRSQNPVQPIGPQTPKACDSKLTFDAITTIRGEVMFFKDRFYMRTNPFYPEVELNFISVFWPQLPNGLEAAYEFADRDEVRFFKGNKYWAVQGQNVLHGYPKDIYSSFGFPRTVKHIDAALSEENTGKTYFFVANKYWRYDEYKRSMDPGYPKMIAHDFPGIGHKVDAVFMKDGFFYFFHGTRQYKFDPKTKRILTLQKANSWFNCRKN | 0 | 0.1 | 0 | 0 | 0 | 0 | 2.7 |
| MMP-2 (protein) YNFFPRKPKWDKNQITYRIIGYTPDLDPETVDDAFARAFQVWSDVTPLRFSRIHDGEADIMINFGRWEHGDGYPFDGKDGLLAHAFAPGTGVGGDSHFDDDELWTLGEGQVVRVKYGNADGEYCKFPFLFNGKEYNSCTDTGRSDGFLWCSTTYNFEKDGKYGFCPHEALFTMGGNAEGQPCKFPFRFQGTSYDSCTTEGRTDGYRWCGTTEDYDRDKKYGFCPETAMSTVGGNSEGAPCVFPFTFLGNKYESCTSAGRSDGKMWCATTANYDDDRKWGFCPDQGYSLFLVAAHEFGHAMGLEHSQDPGALMAPIYTYTKNFRLSQDDIKGIQELYGASPDIDLGTGPTPTLGPVTPEICKQDIVFDGIAQIRGEIFFFKDRFIWRTVTPRDKPMGPLLVATFWPELPEKIDAVYEAPQEEKAVFFAGNEYWIYSASTLERGYPKPLTSLGLPPDVQRVDAAFNWSKNKKTYIFAGDKFWRYNEVKKKMDPGFPKLIADAWNAIPDNLDAVVDLQGGGHSYFFKGAYYLKLENQSLKSVKFGSIKSDWLGC | 11.8 | 1.1 | 1.9 | 29.6 | 0 | 0 | 31.2 |
| MMP-7 (protein) YSLFPNSPKWTSKVVTYRIVSYTRDLPHITVDRLVSKALNMWGKEIPLHFRKVVWGTADIMIGFARGAHGDSYPFDGPGNTLAHAFAPGTGLGGDAHFDEDERWTDGSSLGINFLYAATHELGHSLGMGHSSDPNAVMYPTYGNGDPQNFKLSQDDIKGIQKLYGKRSNSRKK | 1.8 | 0.2 | 0.2 | 2.4 | 0 | 0 | 2.5 |
